Test system: MS2 coat protein
Assay: apparent KD of MS2 coat protein; higher = weaker reporter binding
Conditions: Eterna round: R107
Summary of the method: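 With or without constant ligand, designed RNA switches in 100 mM Tris-HCl pH 7.5, 80 mM KCl and 4 mM MgCl2 were titrated with SNAP-549-labelled MS2 coat protein. Concentrations went up in twofold steps from 0.7 or 1.5 nM to 3 µM. The switches had been transcribed on-chip from Illumina sequencing clusters, and apparent KD is the per-design median of normalised cluster binding-curve fits.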

[1] = input ligand: theophylline 20 uM
[2] = input ligand: theophylline 2 mM
[3] = input ligand: tryptophan 2.4 mM

Sequence | apparent KD of MS2 coat protein (input ligand: arginine 13.2 mM) | apparent KD of MS2 coat protein (input ligand: none) | apparent KD of MS2 coat protein [1] | apparent KD of MS2 coat protein [2] | apparent KD of MS2 coat protein [3]
AGAAUAUAAUAUAUCAAAGGUAUAACCGAAGGAGCGCCGAAUAAGGCAGGUAGGUCGCGGAAACAUGAGGAUCACCCAUGUCCAU [Arginine A Same State; Euphoria Solution 2] | 19 nM | 19.1 nM | 23.6 nM | 16.6 nM | 18.7 nM
GCCUGGGAUACGGCCGCCACUACAUGAGGAUCACCCAUGUAAUAUUUAUUAGAAGAGAGGGUAUGUAGGACCGGGUAAGGAAGGC [e-trypB-0] | 14.3 nM | 15.8 nM | 24.9 nM | 22.5 nM | 26 nM
AGAUAACAUGGUUUAAUAAGUUAAACUGAUACCAGUGUAUAUAAUCACCCUUGGCAGCAGCAACAUGAGGAUCACCCAUGUAAUA [JR_SSTheophyA_Sub013] | 16.2 nM |  | 19.9 nM |  | 19.6 nM
UAAUAAAUAAAUCCAAGGUGAAGGUCAGAUACCAGCCAGAUAACUGGCCCUUGGCAGCUGAAUAAGCUUGAGGAUCACCCAAGUA [TheoAS 26 #OpenEnded #MS2Late #AlternativeMS2] | 27.5 nM |  | 68.4 nM | 275 nM | 32.8 nM
AGCCACUCGAGUGAUCCUCACGAGUGGCUACGAGGACCGGUACGGCCGCCACUCGAAUUAACAUGAGGAUCACCCAUGUAAUCAU [Brourdmod04] | 97.8 nM |  | 259 nM | 317 nM | 
AUAAUAUAGACGGCCGCCACUAUAAACAUGAGGAACAUGAGGAUCACCCAUGUAUGAGGAUCACCUAGGACCGGGUCAUAUAUUA [AstrosExyTryB#2] | 39.3 nM |  | 79.8 nM | 62.4 nM | 
UAAUAAAUAAAUCCAAGGUGAAGGUCAGAUACCAGCCAGAUAACUGGCCCUUGGCAGCUGAAUAAACUUGAGGAUCACCCAGGUA [TheoAS 27 #OpenEnded #MS2Late #AlternativeMS2] | 45.4 nM | 63.1 nM | 135 nM | 548 nM | 55.6 nM
UGCGUACAUGAGGAUCACCCAUGUACUGAAGGAGCGGGAGGCAUCUCAGGUAGGUCGCAGACAUGAGGAUCACCCAUGUAGUGGU [Exclusion Arginine A GF 18] | 16.1 nM | 26.9 nM | 44.6 nM | 38.3 nM | 26.6 nM
GCACCAGGUACGGAUACCAGCUAUAGGCCCUAUGGGCGACAUGAGGAUCACCCAUGUAAUGGCCCUUGGCAGCUGUACCUGGUGC [SSThB NP+V+V2 #10 +-Same Structure] | 120 nM |  | 97.3 nM |  | 169 nM
GAUGAUAUUGCAGAUACCAGACACAUGAGGAUCACCCAUGUGUCCUCGCCAGCGGCAUGUGUCCCUUGGCAGCUGCGAUAUCAUC [Colombia] | 11.1 nM | 11.1 nM | 17.7 nM | 41.2 nM | 12.1 nM
UGUAACAUGAGGAUCACCCAUGUGAGUGAUACCAGAUUAGUAGUAGUCCCUUGGCAGCAUAUUGGGCGAGUGUAUAGUCUAUGCG [Same State - Theophylline A (Freestyle 10)] | 94 nM |  | 250 nM |  | 205 nM
CGAGUAAGUUCAAUCGAAUAACGGUUUUCGCGAGGACCGGUACGGCCGCCACUCGUGUGAUAUCACACAUGAGGAUCACCCAUGU [3'end-1] | 42.7 nM |  | 77.1 nM | 135 nM | 
GUCUGAGUCUGAAGGAGCGACAUGAGGAUCACCCAUGUCUCCCGUUAUGGGAGUUCCUUAGGUCAGGUAGGUCGCAGACUCAGAC [#1 Exclusion - Arginine B Attempt #26 (Inspired by Omei)] | 60.9 nM | 145 nM | 139 nM | 172 nM | 108 nM
GGCCCACAUGAGGAUCACCCAUGUGUGGAUACCAGCCUCAUUUAGGGCCCUUGGCAGCCAGAUAGUAACAAGUCCGAAACACAGA [theeternabot_sameState_MS2_Theo_A_24] | 26.2 nM |  | 203 nM |  | 144 nM
